The record followed here is patent publication US20120316071A1.

Experiment [1] concerns the target rHuman P-Cadherin/Fc Chimera, CF (R&D Systems Cat#861-PC) (human) (UniProt P22223). Nature of the experiment: Multispot ECL (MSD), antigen spotted on plate, Fab 0.01563 uM; blank spot 906.
Experiment [2] deals with rHuman ErbB2/Fc Chimera, CF (R&D Systems Cat#1129-ER) (human) (UniProt P04626). The experiment is described as above.
In experiment [3] the target is Recombinant Human DLL4 (R&D Systems Cat#1506-D4/CF) (human) (UniProt Q9NR61). The description is as above.
The target of experiment [4] is rHuman P-Cadherin/Fc Chimera, CF (R&D Systems Cat#861-PC) (human) (UniProt P22223). In words: Multispot ECL (MSD), antigen spotted on plate, Fab […]; blank spot 6344.
The target of experiment [5] is rHuman ErbB2/Fc Chimera, CF (R&D Systems Cat#1129-ER) (human) (UniProt P04626). The experiment is described as above.
The target of experiment [6] is Recombinant Human DLL4 (R&D Systems Cat#1506-D4/CF) (human) (UniProt Q9NR61). The experiment is described as above.
Experiment [7] concerns the target rHuman P-Cadherin/Fc Chimera, CF (R&D Systems Cat#861-PC) (human) (UniProt P22223). In words: Multispot ECL (MSD), antigen spotted on plate, Fab 0.0625 uM; blank spot 1738.
Experiment [8] has as its target rHuman ErbB2/Fc Chimera, CF (R&D Systems Cat#1129-ER) (human) (UniProt P04626). The experiment is described as above.
For experiment [9], the target named is Recombinant Human DLL4 (R&D Systems Cat#1506-D4/CF) (human) (UniProt Q9NR61). The description is as above.
Experiment [10] concerns the target rHuman P-Cadherin/Fc Chimera, CF (R&D Systems Cat#861-PC) (human) (UniProt P22223). Nature of the experiment: Multispot ECL (MSD), antigen spotted on plate, Fab 0.00391 uM; blank spot 576.
The target of experiment [11] is rHuman ErbB2/Fc Chimera, CF (R&D Systems Cat#1129-ER) (human) (UniProt P04626). The experiment is described as above.
For experiment [12], the target named is Recombinant Human DLL4 (R&D Systems Cat#1506-D4/CF) (human) (UniProt Q9NR61). Described as above.
Experiment [13] addresses rHuman ErbB2/Fc Chimera, CF (R&D Systems Cat#1129-ER) (human) (UniProt P04626). Nature of the experiment: MSD multispot ECL, antigen spotted on plate; Fab 1.19 uM; blank spot 24999.
For experiment [14], the target named is rHuman HGF R/c-MET/Fc Chimera, CF (R&D Systems Cat#358-MT/CF) (human) (UniProt P08581). Described as above.
The target in experiment [15] is rHuman IGF-1 sR, CF (R&D Systems Cat#391-GR) (human) (UniProt P08069). The experiment is described as above.
For experiment [16], the target named is rHuman ErbB2/Fc Chimera, CF (R&D Systems Cat#1129-ER) (human) (UniProt P04626). Nature of the experiment: MSD multispot ECL, antigen spotted on plate; Fab 0.2975 uM; blank spot 5019.
Experiment [17] addresses rHuman HGF R/c-MET/Fc Chimera, CF (R&D Systems Cat#358-MT/CF) (human) (UniProt P08581). The description is as above.
In experiment [18] the target is rHuman IGF-1 sR, CF (R&D Systems Cat#391-GR) (human) (UniProt P08069). The experiment is described as above.
Experiment [19] concerns the target rHuman ErbB2/Fc Chimera, CF (R&D Systems Cat#1129-ER) (human) (UniProt P04626). Nature of the experiment: MSD multispot ECL, antigen spotted on plate; Fab 0.07438 uM; blank spot 2504.
Experiment [20] addresses rHuman HGF R/c-MET/Fc Chimera, CF (R&D Systems Cat#358-MT/CF) (human) (UniProt P08581). Described as above.
In experiment [21] the target is rHuman IGF-1 sR, CF (R&D Systems Cat#391-GR) (human) (UniProt P08069). The description is as above.
Experiment [22] deals with rHuman ErbB2/Fc Chimera, CF (R&D Systems Cat#1129-ER) (human) (UniProt P04626). Nature of the experiment: MSD multispot ECL, antigen spotted on plate; Fab 0.01859 uM; blank spot 1776.
The target in experiment [23] is rHuman HGF R/c-MET/Fc Chimera, CF (R&D Systems Cat#358-MT/CF) (human) (UniProt P08581). Described as above.
In experiment [24] the target is rHuman IGF-1 sR, CF (R&D Systems Cat#391-GR) (human) (UniProt P08069). The description is as above.
The target in experiment [25] is rHuman CD44/Fc Chimera, CF (R&D Systems Cat#3660-CD) (human) (UniProt P16070). In words: ECL multispot (MSD) assay, antigen spotted on plate, 20 nM Fab.
Experiment [26] deals with rHuman P-Cadherin/Fc Chimera, CF (R&D Systems Cat#861-PC) (human) (UniProt P22223). The description is as above.
Experiment [27] has as its target rHuman Notch-1/Fc Chimera, CF (R&D Systems Cat#3647-TK) (human) (UniProt P46531). Described as above.
Experiment [28] has as its target Recombinant Human DLL4 (R&D Systems Cat#1506-D4/CF) (human) (UniProt Q9NR61). The description is as above.
For experiment [29], the target named is rHuman IGF-1 sR, CF (R&D Systems Cat#391-GR) (human) (UniProt P08069). The description is as above.
The target of experiment [30] is rHuman EGF R/Fc Chimera, CF (R&D Systems Cat#344-ER) (human) (UniProt P00533). Described as above.
In experiment [31] the target is rHuman Erythropoietin R/Fc Chimera, CF (R&D Systems Cat#963-ER) (human) (UniProt P19235). Nature of the experiment: ECL (MSD) multispot binding assay, antigen spotted on plate, 20 nM Fab.
Experiment [32] deals with rHuman CD44/Fc Chimera, CF (R&D Systems Cat#3660-CD) (human) (UniProt P16070). The experiment is described as above.
Experiment [33] concerns the target rHuman P-Cadherin/Fc Chimera, CF (R&D Systems Cat#861-PC) (human) (UniProt P22223). In words: ECL Multispot (MSD), antigen spotted, Fab.
For experiment [34], the target named is rHuman ErbB2/Fc Chimera, CF (R&D Systems Cat#1129-ER) (human) (UniProt P04626). Nature of the experiment: ECL Multispot (MSD), antigen spotted, Fab.
Experiment [35] deals with rHuman HGF R/c-MET/Fc Chimera, CF (R&D Systems Cat#358-MT/CF) (human) (UniProt P08581). In words: ECL Multispot (MSD), antigen spotted, Fab.
The target in experiment [36] is rHuman Notch-1/Fc Chimera, CF (R&D Systems Cat#3647-TK) (human) (UniProt P46531). In words: ECL Multispot (MSD), antigen spotted, Fab.
Experiment [37] addresses rHuman Erythropoietin R/Fc Chimera, CF (R&D Systems Cat#963-ER) (human) (UniProt P19235). Nature of the experiment: ECL Multispot (MSD), antigen spotted, Fab.
Experiment [38] addresses Recombinant Human DLL4 (R&D Systems Cat#1506-D4/CF) (human) (UniProt Q9NR61). Nature of the experiment: ECL Multispot (MSD), antigen spotted, Fab.
Experiment [39] concerns the target rHuman IGF-1 sR, CF (R&D Systems Cat#391-GR) (human) (UniProt P08069). In words: ECL Multispot (MSD), antigen spotted, Fab.
For experiment [40], the target named is rHuman CD44/Fc Chimera, CF (R&D Systems Cat#3660-CD) (human) (UniProt P16070). In words: ECL Multispot (MSD), antigen spotted, Fab.
Experiment [41] addresses rHuman EGF R/Fc Chimera, CF (R&D Systems Cat#344-ER) (human) (UniProt P00533). In words: ECL Multispot (MSD), antigen spotted, Fab.

Consider “Fab VH1-46_IGHD2-15*01_IGHJ2*01 & L2_IGKJ1*01”, for which the ECL signal in experiment [1] is 4940; in [2], 4500; in [3] it was 4020; in [4], 25500; in experiment [5] it was 29600; in experiment [6], 27700. For the same substance, the ECL signal worked out at 7740 in experiment [7]; 9030 in experiment [8]; 8050 in [9]; 1960 in experiment [10]; 1670 in [11]; 1550 in [12].
“Fab VH1-46_IGHD6-13*01_IGHJ4*01 & L2_IGKJ1*01”: the ECL signal in experiment [13] is 38400; in [14] it was 45500; in [15] it was 35200; in [16], 15100; in experiment [17], 17400; in experiment [18], 17400. In addition, the ECL signal in experiment [19] stood at 7550; in experiment [20], 6610; in experiment [21] it was 5800; in [22], 5530; in experiment [23], 4570; in experiment [24], 3780.
“Fab VH3-23_IGHD2-21*01>3_IGHJ6*01 H100E/S108P V64A & V2-13_IGLJ2*01”: the ECL signal/blank ratio (read-out not given) in experiment [25] came out at 2.2; in [26] it was 30.6; in experiment [27] it was 3; in experiment [28], 2.7; in experiment [29] it was 1.2; in experiment [30] it was 9.1.
As to “Fab VH3-23_IGHD2-21*01>3_IGHJ6*01 H100E/S108P/Y113G/Y111E & V2-13_IGLJ2*01”, the ECL signal/blank ratio in experiment [31] is 2.9.
As for “Fab VH3-23_IGHD2-21*01>3_IGHJ6*01 H100E/S108P/Y113G/Y111W & V2-13_IGLJ2*01”, the ECL signal/blank ratio in experiment [32] was determined as 3.4.
For the substance “Fab VH3-23_IGHD3-10*01>3_IGHJ6*01 Y112A & O12_IGKJ1*01”, the ECL signal/blank ratio was 1.1 in experiment [33]; 1.3 in experiment [34]; 0.8 in experiment [35]; 1.1 in experiment [36]; 1.6 in [37]; 1.2 in [38]. In experiment [39], the ECL signal/blank ratio was 1.4.
In the case of “Fab VH3-23_IGHD3-10*01>3_IGHJ6*01 Y112G & O12_IGKJ1*01”, the ECL signal/blank ratio in experiment [40] is 2.5; in experiment [33] it was 1.4; in experiment [35], 2.3; in experiment [36] it was 3.3; in experiment [37], 1.6; in experiment [38] it was 2.2. The values for the ECL signal/blank ratio in experiment [39] and in experiment [41] were 2.3 and 2.1, respectively.
